The values below come from patent US6630572.

For assay [1], the target named is high-affinity cell surface thrombin receptor on mouse embryo (ME) cells (mouse) (UniProt P30558). Kind of assay: competition with [^125I]-alpha-thrombin (1 nM) on quiescent ME cells.
The target is the same in assay [2]. Kind of assay: competition with [^125I]-alpha-thrombin on ME cells.
Assay [3] shares this target. Kind of assay: cell-based or functional assay.
The target is the same in assay [4]. Kind of assay: competition with [^125I]-alpha-thrombin on ME cells; reference p508-530.
For assay [5] the target is unchanged. Kind of assay: competition with [^125I]-alpha-thrombin (1 nM) for specific binding to quiescent ME cells, 23 C.
Assay [6] shares this target. Kind of assay: competition with [^125I]-alpha-thrombin (1 nM) on quiescent ME cells; at 2.7 uM peptide.

On to RGDA [synthetic peptide p517-520 (residues 517 to 520 of human prothrombin)], for which the concentration at Maximal % Inhibition in assay [1] turned out to be 2.7 µM. In addition, in assay [2], the percent of [^125I]-alpha-thrombin binding competed lay in the range of 30 to 50%. In assay [3], the inhibition of alpha-thrombin stimulated DNA synthesis in ME cells by 625 nM p517-520, at 0.8 nM alpha-thrombin is 75%; the inhibition of alpha-thrombin stimulated DNA synthesis in ME cells by 625 nM p517-520, at 13.0 nM alpha-thrombin is 35%; the molar excess of p517-520 over alpha-thrombin required for inhibition of stimulation was 500 to 1000 fold. Further, the fold higher concentration for 30% inhibition than p508-530 in assay [4] was determined as 50 fold. The Concentration Required for 30% Inhibition in assay [5] was determined as 300 nM. The Maximal % Inhibition in assay [6] was 50%.
